What all share (assay): Kinetic characterization (Km and kcat/Km of probe hydrolysis)
Type in all cases: biochemical
Common to all, as to settings: other: caspase-1 added to increasing probe concentrations; initial velocities; nonlinear regression

Substrate in data set [1]: CCN(CC)c1ccc2cc(C(=O)NNC(=O)[C@H](CC(=O)O)NC(=O)[C@@H]3CCCN4C(=O)CC[C@H](NC(=O)c5cc6cc(Br)c(O)cc6oc5=O)C(=O)N34)c(=O)oc2c1
On the procedure:
(§1) Km and kcat/Km values were determined using standard methods (Kindermann et al., 2010; Rozman Pungercar et al., 2003). Caspase-1 was added to increasing concentrations of the probe and initial velocities of probe hydrolysis were calculated from the slopes of the lines of the fluorescence increase. Km and kcat (Vmax) values were then determined by nonlinear regression analysis using the Prism program.

Substrate in data set [2]: CCN(CC)c1ccc2cc(C(=O)NNC(=O)[C@H](CC(=O)O)NC(=O)[C@@H]3CCCN4C(=O)CC[C@H](NC(=O)c5cc6ccc(O)cc6oc5=O)C(=O)N34)c(=O)oc2c1
As for the experimental part: as §1

Substrate in data set [3]: CCN(CC)c1ccc2cc(C(=O)NNC(=O)[C@H](CC(=O)O)NC(=O)[C@@H]3CCCN4C(=O)CC[C@H](NC(=O)c5cc6ccc(OC)cc6oc5=O)C(=O)N34)c(=O)oc2c1
On the procedure:
as §1

B1: Caspase-1 (Homo sapiens) (protein)
chain 1: NPAMPTSSGSEGNVKLCSLEEAQRIWKQKSAEIYPIMDKSSRTRLALIICNEEFDSIPRRTGAEVDITGMTMLLQNLGYSVDVKKNLTASDMTTELEAFAHRPEHKTSDSTFLVFMSHGIREGICGKKHSEQVPDILQLNAIFNMLNTKNCPSLKDKPKVIIIQACRGDSPGVVWFKD
chain 2: AIKKAHIEKDFIAFCSSTPDNVSWRHPTMGSVFIGRLIEHMQEYACSCDVEEIFRKVRFSFEQPDGRAQMPTTERVTLTRCFYLFPGH
On to B1, for which the results for the Km in data set [1], in data set [2] and in data set [3] were 5.9 µM µM, 6.5 µM µM and 4.2 µM µM, respectively.

The record behind these values is patent EP2848696A1, “Caspase-1 imaging probes” (Sanofi-Aventis Deutschland GmbH, priority 2013, dated 2015).
